# Experimental data reported in article PMC5316894, “Cationic amino acid transporters play key roles in the survival and transmission of apicomplexan parasites” (Nature Communications, 2017).
# B1: TgNPT1 (TgNPT1-HA) (Toxoplasma gondii ME49) (protein)
# chain: MAGLLSSCCGRVYALLPDSAHPSAQQKTPFGVNRYVLLVIYMIYALLTSSVYFGWRSMSAMLFKSGQFSWVCTGESADTSPEEGETDYLCALQDTKVQSLFTIAMACHFTCSAVAGYLLDTVGPKAVALLGQTFNALAWILLAFSGPNFRSVYPAFVFMGAGADVSVYPTLLIVNLFPGSTALIMATLGACISLSFFVPLVLRTMWESTGISFEAVCIGYAVAGPILCAVVAFFFIPFKAFKGVDNFSACVEAEKLANSPTAQSSPKAVDSPPCDEGASSRGRLAVSHNTERTAPDDEQEKDNTERISLSDLACDPRFKKQKVSFSSQAFTFLYFGICLYFTVCGWVMAYYQEAAGRFLCNDAEYTLEILTPLSTIPCLLFGVVINRIGIMPVILMLNTIGLLTYVCVVAAESVVAQYFSVIFFFMYISIFTTQMYVFVESTFDSAHFGKLIGVASLIGGLLSLISNVLYGDVTVGMLNGDTRPVVIALLAVIILMYPILLAMRTKRNRKKQMEQEDIRSRVLELKAAHAADAA
# notes: full ORF from RH cDNA, C-terminal HA tag, cRNA in Xenopus laevis oocytes (pGHJ-HA); calculated 58 kDa, runs at ~40 kDa in parasites; 12 predicted TM domains
# B2: PbNPT1 (PbNPT1-HA) (Plasmodium berghei ANKA) (protein)
# chain: MNESNCTKIVNFLKGMRLKTNPNLPGAKQKTPLNIHRFYLLLIIIIYTATSACIYFDWTSIRNLLLNVGKYEHLNISKYADITLSPQYKKINNLYPMTLAIHFTMSVFCGFLYDHIGPKFTAIIGQGFNILSWIFLSIDTTKIDTTLIGFIFLGLGADTAFIPILTVSNLFPDISTFIMTVIGAAASLSYAVPATLNFVYKKYPHFPFYYICYGYIFIILIPCLLVATFLLPMKPFKGLDYYLENDQESDSKNKEQISYTDNDVEMQPSLIQNGNTNVSNNVNKNKATKNIIEGENFHKQSILLFFKVLLSYPSICIIVYFILFNISTVFYGMVTDIYFSYNKSIINIINILMPISFIPCIIFGRFINKYGAAIIIIIMNAFSALMHLTALIKHQAAGLISAFLYMCAASIYTSQIYCFLLNAFPSVVFGKLLGITSLFGGMFSLFCEKLYDNISNSSGNKNDPTTISILLAISFIIMFLPLSILYTRNYEKNIESVNSEKNQIQA
# notes: full ORF, synthetic codon-harmonized gene, C-terminal HA tag, cRNA in Xenopus laevis oocytes (pGHJ-HA)
# Legend:
# Assay in all cases: cells, lysate or membranes
# [1] = substrate: N=C(N)NCCC[C@H](N)C(=O)O; assay type: cell-based, Toxoplasma gondii; conditions: ND96, pH 7.4, 0-1 mM arginine, labelled compound, Figure 3 legend prints 88±16
# [2] = substrate: NCCCC[C@H](N)C(=O)O; assay type: cell-based, Plasmodium berghei; conditions: ND96, pH 7.4, 500 μM unlabelled methionine present to lower background, labelled compound
# [3] = substrate: N=C(N)NCCC[C@H](N)C(=O)O; assay type: cell-based, Plasmodium berghei; conditions: ND96, pH 7.4, 125 μM unlabelled methionine present to lower background, labelled compound
Protein,Km [1],Km [2],Km [3]
B1,88 ± 15 µM,,
B2,,130 ± 26 µM,41 ± 9 µM
